In assay [1] the target is His6-AviTag-MBP-TEV-POLE2, P56282. Briefly: nHU titration, dot blot. As to conditions: chain shown with the change.
In assay [2] the target is triple NPF motif peptide made from the DONSON sequence (human). Briefly: native holdup (nHU) titration with western blot; biotinylated peptide bait on streptavidin resin, bait-saturated and control (biotin) resin mixed at various proportions; total Jurkat extract as analyte; 4 °C, 2 h; endogenous POLE and EPS15 left in the supernatant quantified by western blot; apparent dissociation constants.

Chain of His6-AviTag-MBP-TEV-POLE2, P56282 (P56282 whole entry): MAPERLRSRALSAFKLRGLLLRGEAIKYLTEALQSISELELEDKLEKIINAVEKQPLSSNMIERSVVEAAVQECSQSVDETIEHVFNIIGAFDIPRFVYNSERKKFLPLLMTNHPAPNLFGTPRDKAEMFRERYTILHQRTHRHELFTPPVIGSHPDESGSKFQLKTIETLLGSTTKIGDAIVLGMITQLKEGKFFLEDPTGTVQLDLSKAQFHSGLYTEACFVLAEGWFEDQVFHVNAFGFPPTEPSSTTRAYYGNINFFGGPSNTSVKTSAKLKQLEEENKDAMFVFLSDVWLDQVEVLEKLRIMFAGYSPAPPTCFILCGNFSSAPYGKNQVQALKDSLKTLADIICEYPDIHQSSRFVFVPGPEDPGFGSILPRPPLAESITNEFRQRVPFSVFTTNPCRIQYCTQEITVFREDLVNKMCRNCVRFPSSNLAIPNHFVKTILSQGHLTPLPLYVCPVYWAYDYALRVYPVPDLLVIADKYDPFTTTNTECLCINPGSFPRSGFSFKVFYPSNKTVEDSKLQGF

B1: HA-ERCC6L, full length, intact NPF motif, Q2NKX8 NPF to KAF (protein)
chain: MEASRRFPEAEALSPEQAAHYLRYVKEAKEATKNGDLEEAFKLFNLAKDIFPNEKVLSRIQKIQEALEELAEQGDDEFTDVCNSGLLLYRELHNQLFEHQKEGIAFLYSLYRDGRKGGILADDMGLGKTVQIIAFLSGMFDASLVNHVLLIMPTNLINTWVKEFIKWTPGMRVKTFHGPSKDERTRNLNRIQQRNGVIITTYQMLINNWQQLSSFRGQEFVWDYVILDEAHKIKTSSTKSAICARAIPASNRLLLTGTPIQNNLQELWSLFDFACQGSLLGTLKTFKMEYENPITRAREKDATPGEKALGFKISENLMAIIKPYFLRRTKEDVQKKKSSNPEARLNEKNPDVDAICEMPSLSRKNDLIIWIRLVPLQEEIYRKFVSLDHIKELLMETRSPLAELGVLKKLCDHPRLLSARACCLLNLGTFSAQDGNEGEDSPDVDHIDQVTDDTLMEESGKMIFLMDLLKRLRDEGHQTLVFSQSRQILNIIERLLKNRHFKTLRIDGTVTHLLEREKRINLFQQNKDYSVFLLTTQVGGVGLTLTAATRVVIFDPSWNPATDAQAVDRVYRIGQKENVVVYRLITCGTVEEKIYRRQVFKDSLIRQTTGEKKNPFRYFSKQELRELFTIEDLQNSVTQLQLQSLHAAQRKSDIKLDEHIAYLQSLGIAGISDHDLMYTCDLSVKEELDVVEESHYIQQRVQKAQFLVEFESQNKEFLMEQQRTRNEGAWLREPVFPSSTKKKCPKLNKPQPQPSPLLSTHHTQEEDISSKMASVVIDDLPKEGEKQDLSSIKVNVTTLQDGKGTGSADSIATLPKGFGSVEELCTNSSLGMEKSFATKNEAVQKETLQEGPKQEALQEDPLESFNYVLSKSTKADIGPNLDQLKDDEILRHCNPWPIISITNESQNAESNVSIIEIADDLSASHSALQDAQASEAKLEEEPSASSPQYACDFNLFLEDSADNRQNFSSQSLEHVEKENSLCGSAPNSRAGFVHSKTCLSWEFSEKDDEPEEVVVKAKIRSKARRIVSDGEDEDDSFKDTSSIKAFNTSLFQFSSVKQFDASTPKNDISPPGRFFSSQIPSSVNKSMNSRRSLASRRSLINMVLDHVEDMEERLDDSSEAKGPEDYPEEGVEESSGEASKYTEEDPSGETLSSENKSSWLMTSKPSALAQETSLGAPEPLSGEQLVGSPQDKAAEATNDYETLVKRGKELKECGKIQEALNCLVKALDIKSADPEVMLLTLSLYKQLNNN
Turning to B1, the Kd in assay [1] was found to be 23 µM.

B2: EPS15 (natural protein)
chain: MAAAAQLSLTQLSSGNPVYEKYYRQVDTGNTGRVLASDAAAFLKKSGLPDLILGKIWDLADTDGKGILNKQEFFVALRLVACAQNGLEVSLSSLNLAVPPPRFHDTSSPLLISGTSAAELPWAVKPEDKAKYDAIFDSLSPVNGFLSGDKVKPVLLNSKLPVDILGRVWELSDIDHDGMLDRDEFAVAMFLVYCALEKEPVPMSLPPALVPPSKRKTWVVSPAEKAKYDEIFLKTDKDMDGFVSGLEVREIFLKTGLPSTLLAHIWSLCDTKDCGKLSKDQFALAFHLISQKLIKGIDPPHVLTPEMIPPSDRASLQKNIIGSSPVADFSAIKELDTLNNEIVDLQREKNNVEQDLKEKEDTIKQRTSEVQDLQDEVQRENTNLQKLQAQKQQVQELLDELDEQKAQLEEQLKEVRKKCAEEAQLISSLKAELTSQESQISTYEEELAKAREELSRLQQETAELEESVESGKAQLEPLQQHLQDSQQEISSMQMKLMEMKDLENHNSQLNWCSSPHSILVNGATDYCSLSTSSSETANLNEHVEGQSNLESEPIHQESPARSSPELLPSGVTDENEVTTAVTEKVCSELDNNRHSKEEDPFNVDSSSLTGPVADTNLDFFQSDPFVGSDPFKDDPFGKIDPFGGDPFKGSDPFASDCFFRQSTDPFATSSTDPFSAANNSSITSVETLKHNDPFAPGGTVVAASDSATDPFASVFGNESFGGGFADFSTLSKVNNEDPFRSATSSSVSNVVITKNVFEETSVKSEDEPPALPPKIGTPTRPCPLPPGKRSINKLDSPDPFKLNDPFQPFPGNDSPKEKDPEIFCDPFTSATTTTNKEADPSNFANFSAYPSEEDMIEWAKRESEREEEQRLARLNQQEQEDLELAIALSKSEISEA
Consider B2, for which the Kd in assay [2] turned out to be 0.8 µM.

B3: HA-WDHD1, full length, intact NPF motif, O75717 NPF to KAF (protein)
chain: MPATRKPMRYGHTEGHTEVCFDDSGSFIVTCGSDGDVRIWEDLDDDDPKFINVGEKAYSCALKSGKLVTAVSNNTIQVHTFPEGVPDGILTRFTTNANHVVFNGDGTKIAAGSSDFLVKIVDVMDSSQQKTFRGHDAPVLSLSFDPKDIFLASASCDGSVRVWQISDQTCAISWPLLQKCNDVINAKSICRLAWQPKSGKLLAIPVEKSVKLYRRESWSHQFDLSDNFISQTLNIVTWSPCGQYLAAGSINGLIIVWNVETKDCMERVKHEKGYAICGLAWHPTCGRISYTDAEGNLGLLENVCDPSGKTSSSKVSSRVEKDYNDLFDGDDMSNAGDFLNDNAVEIPSFSKGIINDDEDDEDLMMASGRPRQRSHILEDDENSVDISMLKTGSSLLKEEEEDGQEGSIHNLPLVTSQRPFYDGPMPTPRQKPFQSGSTPLHLTHRFMVWNSIGIIRCYNDEQDNAIDVEFHDTSIHHATHLSNTLNYTIADLSHEAILLACESTDELASKLHCLHFSSWDSSKEWIIDLPQNEDIEAICLGQGWAAAATSALLLRLFTIGGVQKEVFSLAGPVVSMAGHGEQLFIVYHRGTGFDGDQCLGVQLLELGKKKKQILHGDPLPLTRKSYLAWIGFSAEGTPCYVDSEGIVRMLNRGLGNTWTPICNTREHCKGKSDHYWVVGIHENPQQLRCIPCKGSRFPPTLPRPAVAILSFKLPYCQIATEKGQMEEQFWRSVIFHNHLDYLAKNGYEYEESTKNQATKEQQELLMKMLALSCKLEREFRCVELADLMTQNAVNLAIKYASRSRKLILAQKLSELAVEKAAELTATQVEEEEEEEDFRKKLNAGYSNTATEWSQPRFRNQVEEDAEDSGEADDEEKPEIHKPGQNSFSKSTNSSDVSAKSGAVTFSSQGRVKAFKVSASSKEPAMSMNSARSTNILDNMGKSSKKSTALSRTTNNEKSPIIKPLIPKPKPKQASAASYFQKRNSQTNKTEEVKEENLKNVLSETPAICPPQNTENQRPKTGFQMWLEENRSNILSDNPDFSDEADIIKEGMIRFRVLSTEERKVWANKAKGETASEGTEAKKRKRVVDESDETENQEEKAKENLNLSKKQKPLDFSTNQKLSAFAFKQE
Regarding B3, the Kd in assay [1] came out at 32 µM.

B4: HA-TTF2, full length, intact NPF motifs, Q9UNY4 NPF to KAF (protein)
chain: MEEVRCPEHGTFCFLKTGVRDGPNKGKSFYVCRADTCSFVRATDIPVSHCLLHEDFVVELQGLLLPQDKKEYRLFFRCIRSKAEGKRWCGSIPWQDPDSKEHSVSNKSQHASETFHHSSNWLRKAFKVLDKNQEPALWKQLIKGEGEEKKADKKQREKGDQLFDQKKEQKPEMMEKDLSSGLVPKKKQSVVQEKKQEEGAEIQCEAETGGTHKRDFSEIKSQQCQGNELTRPSASSQEKSSGKSQDVQRESEPLREKVTQLLPQNVHSHNSISKPQKGGPLNKEYTNWEAKETKAKDGPSIQATQKSLPQGHFQERPETHSVPAPGGPAAQAAPAAPGLSLGEGREAATSSDDEEEDDVVFVSSKPGSPLLFDSTLDLETKENLQFPDRSVQRKVSPASGVSKKVEPSDPVARRVYLTTQLKQKKSTLASVNIQALPDKGQKLIKQIQELEEVLSGLTLSPEQGTNEKSNSQVPQQSHFTKTTTGPPHLVPPQPLPRRGTQPVGSLELKSACQVTAGGSSQCYRGHTNQDHVHAVWKITSEAIGQLHRSLESCPGETVVAEDPAGLKVPLLLHQKQALAWLLWRESQKPQGGILADDMGLGKTLTMIALILTQKNQEKKEEKEKSTALTWLSKDDSCDFTSHGTLIICPASLIHHWKNEVEKRVNSNKLRVYLYHGPNRDSRARVLSTYDIVITTYSLVAKEIPTNKQEAEIPGANLNVEGTSTPLLRIAWARIILDEAHNVKNPRVQTSIAVCKLQACARWAVTGTPIQNNLLDMYSLLKFLRCSPFDEFNLWRSQVDNGSKKGGERLSILTKSLLLRRTKDQLDSTGRPLVILPQRKFQLHHLKLSEDEETVYNVFFARSRSALQSYLKRHESRGNQSGRSPNNPFSRVALEFGSEEPRHSEAADSPRSSTVHILSQLLRLRQCCCHLSLLKSALDPMELKGEGLVLSLEEQLSALTLSELRDSEPSSTVSLNGTFFKMELFEGMRESTKISSLLAELEAIQRNSASQKSVIVSQWTNMLKVVALHLKKHGLTYATIDGSVNPKQRMDLVEAFNHSRGPQVMLISLLAGGVGLNLTGGNHLFLLDMHWNPSLEDQACDRIYRVGQQKDVVIHRFVCEGTVEEKILQLQEKKKDLAKQVLSGSGESVTKLTLADLRVLFGI
In assay [1], B4 yielded a Kd of 1.1 µM.

These data come from article PMC12808100, “The non-catalytic DNA polymerase ε subunit is an NPF motif recognition protein” (Nature Communications, 2025).
